Laboratory results reported in patent publication US20020094951A1, “DENTAL REMEDIES CONTAINING PTH” (priority 1997, published 2002).

Tests used:
[1] = test system: ovariectomized (OVX) female SD rats; test: Bone density by DXA in ovariectomized (OVX) rats after hormone administration (Example 1); type: in vivo, rat; conditions: for bone density of the ramal portion / bone density of the femur / bone density of the lumbar vertebrae: four times a week for 10 weeks; for bone density of the ramal portion: FIG. 2; for bone density of the femur / bone density of the lumbar vertebrae: DXA
Experimental: Forty female SD rats were used. At the age of 20 weeks after birth, 35 of the animals were subjected to OVX (ovariectomy) and the remaining five were subjected to Sham operation. Starting at the age of 30 weeks when bone resorption progressed fully, animals of the OVX group were subcutaneously administered with hormones for 10 weeks on a four-times-a-week basis. Five of the group administered with human PTH (1-84) were administered a dose of 10 μg/kg body weight, another five a dose of 40 μg/kg body weight and the last five a dose of 150 μg/kg body weight. The group administered with 17β-estradiol as estrogen consisted of 5 rats, which were administered a dose of […] body weight. Ten rats were administered with both hormones, 17β-estradiol at a dose of 10 μg/kg body weight and human PTH (1-84) at different doses of 10 μg/kg body weight (in 5 rats) and 150 μg/kg body weight (in the other five). After the hormone administration and at the age of 40 weeks after birth, the mandibular bone, femur and lumbar vertebrae were extracted and measured for bone density and bone mineral content by DXA (Aloca). Measurement on the mandibular bone was conduced at two sites, the alveolar bone portion including the posterior teeth and the ramal portion.

[2] = test system: ovariectomized female SD rats with tooth removal; test: Bone density and bone mineral content by DXA in OVX rats with upper jaw posterior teeth extracted (Example 2); type: in vivo, rat; conditions: 150 μg/kg body weight s.c., four times a week for 10 weeks
Excerpt: Twenty-three female SD rats (body weight; 230-250 g) were used. At the age of 20 weeks after birth, 15 of the animals were subjected to OVX (ovariectomy) and the remaining eight were subjected to Sham operation. Then, at the age of 22 weeks after birth, ten of the ovariectomized rats and four in the Sham operation group had the posterior teeth in the upper jaw extracted. Starting at the age of 30 weeks when bone resorption progressed fully, five of the ovariectomized rats that had the posterior teeth in the upper jaw extracted were subcutaneously administered with human PTH (1-84) at a dose of 150 μg/kg body weight for 10 weeks on a four-time-a-week basis. After the administration of human PTH (1-84) and at the age of 40 weeks after birth, the whole mandibular bone was extracted and the bone densities and bone mineral contents in the whole mandibular bone and the mandibular molar portion were measured by DXA (Aloca).

[3] = OVX rats, 10, 40, 150 μg/kg body weight s.c.
[4] = OVX rats, dose of 150 μg/kg body weight s.c.

Molecule | bone density of the ramal portion ([1]; OVX rats, s.c.) | bone density of the mandibular alveolar bone portion ([1]; OVX rats, 150 μg/kg body weight human PTH (1-84) alone, s.c., 10 weeks, FIG. 1) | bone density of the femur [1, 3] | bone density of the lumbar vertebrae [1, 3] | bone density of the femur [1, 4] | bone density of the lumbar vertebrae [1, 4] | bone density in the mandibular bone (summary) ([1]; ovariectomized aged female rats, summary statement) | bone mineral content of whole mandibular bone ([2]; FIG. 3) | bone mineral content of the mandibular molar portion ([2]; FIG. 4)
C[C@]12CC[C@@H]3c4ccc(O)cc4CC[C@H]3[C@@H]1CC[C@@H]2O [17β-estradiol, estra-1,3,5(10)-trien-3,17β-diol, reference compound] | did not recover |  |  |  |  |  |  |  | 
human PTH (1-84) (protein, UniProt P01270 32-115, looked up, Parathyroid hormone, human parathyroid hormone consisting of 84 amino acid residues) Parathyroid hormone: SVSEIQLMHNLGKHLNSMERVEWLRKKLQDVHNFVALGAPLAPRDAGSQRPRKKEDNVLVESHEKSLGEADKADVNVLTKAKSQ | did not recover | significant increases over the OVX group and returned to the level for the Sham operation group | increased in a dose-dependent manner | increased in a dose-dependent manner | almost recovered to the level for the Sham operation group | almost recovered to the level for the Sham operation group | a distinct improvement in bone density | increased noticeably | increased noticeably
